The values below are quoted from earlier work in paper PMC12207913.

For the data set, the target named is E6AP (Homo sapiens) (UniProt Q05086). Briefly: SPR. (In SPR one partner is held on a chip, and binding of the other changes the refractive index at the surface.)
UniProt Q05086, sequence (Q05086 whole entry): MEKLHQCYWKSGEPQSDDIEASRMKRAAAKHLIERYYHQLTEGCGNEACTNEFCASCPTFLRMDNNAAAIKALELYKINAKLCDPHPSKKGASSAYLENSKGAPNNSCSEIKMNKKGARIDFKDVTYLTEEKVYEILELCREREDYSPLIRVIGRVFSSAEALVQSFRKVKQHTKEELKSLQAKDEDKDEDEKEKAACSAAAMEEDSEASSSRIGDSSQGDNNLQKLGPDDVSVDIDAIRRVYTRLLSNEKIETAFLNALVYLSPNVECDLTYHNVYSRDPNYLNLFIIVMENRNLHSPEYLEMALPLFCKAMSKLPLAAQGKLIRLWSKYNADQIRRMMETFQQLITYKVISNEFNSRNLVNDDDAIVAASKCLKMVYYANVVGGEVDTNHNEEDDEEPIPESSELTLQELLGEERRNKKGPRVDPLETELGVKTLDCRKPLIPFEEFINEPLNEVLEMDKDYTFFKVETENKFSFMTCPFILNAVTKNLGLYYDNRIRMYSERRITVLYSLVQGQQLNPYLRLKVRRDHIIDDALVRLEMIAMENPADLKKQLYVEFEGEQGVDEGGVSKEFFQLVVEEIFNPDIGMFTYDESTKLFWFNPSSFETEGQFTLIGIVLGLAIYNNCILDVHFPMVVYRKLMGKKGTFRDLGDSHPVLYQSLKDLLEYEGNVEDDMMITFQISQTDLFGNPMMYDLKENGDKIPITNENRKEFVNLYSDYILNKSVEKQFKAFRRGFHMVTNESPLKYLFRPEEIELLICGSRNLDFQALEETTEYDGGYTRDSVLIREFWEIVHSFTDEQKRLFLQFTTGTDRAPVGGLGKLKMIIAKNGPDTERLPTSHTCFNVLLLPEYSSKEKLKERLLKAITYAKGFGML

What is called Kd is the equilibrium constant for the complex coming apart. In the case of HPV16 E6 (from UniProt P03126), the Kd was 144 pM.
